According to paper PMC10279719 (Nature Communications, 2023):

B1: PEAK1-IDR1: recombinant human PEAK1 residues 1082–1746, insect cell expressed (protein)
chain: LPELEREDGKEDISDPMDPNPCSATYSNLGQSRAAMIPPKQPRQPKGAVDDAIAFGGKTDQEAPNASQPTPPPLPKKMIIRANTEPISKDLQKSMESSLCVMANPTYDIDPNWDASSAGSSISYELKGLDIESYDSLERPLRKERPVPSAANSISSLTTLSIKDRFSNSMESLSSRRGPSCRQGRGIQKPQRQALYRGLENREEVVGKIRSLHTDALKKLAVKCEDLFMAGQKDQLRFGVDSWSDFRLTSDKPCCEAGDAVYYTASYAKDPLNNYAVKICKSKAKESQQYYHSLAVRQSLAVHFNIQQDCGHFLAEVPNRLLPWEDPDDPEKDEDDMEETEEDAKGETDGKNPKPCSEAASSQKENQGVMSKKQRSHVVVITREVPCLTVADFVRDSLAQHGKSPDLYERQVCLLLLQLCSGLEHLKPYHVTHCDLRLENLLLVHYQPGGTAQGFGPAEPSPTSSYPTRLIVSNFSQAKQKSHLVDPEILRDQSRLAPEIITATQYKKCDEFQTGILIYEMLHLPNPFDENPELKEREYTRADLPRIPFRSPYSRGLQQLASCLLNPNPSERILISDAKGILQCLLWGPREDLFQTFTACPSLVQRNTLLQNWLDIKRTLLMIKFAEKSLDREGGISLEDWLCAQYLAFATTDSLSCIVKILQHR
modifications: left off: His tag, N-terminal, state not stated
notes: recombinant human PEAK1 residues 1082–1746, insect cell expressed
B2: PEAK1-IDR1 (+ Src phosphorylation): PEAK1 residues 1082–1746 phosphorylated with recombinant Src kinase (protein)
chain: B1 chain
modifications: phosphotyrosine at Y1107 (by Src in vitro, shown by MS/MS); other Src sites not stated; biotin (EZ-Link NHS-PEG4-Biotin, 1:1 molar ratio); left off: His-tag, N-terminal, state not stated
notes: PEAK1 residues 1082–1746 phosphorylated with recombinant Src kinase
B3: PEAK2-IDR1: recombinant human PEAK2 residues 802–1406, insect cell expressed (protein)
chain: EDVSPSGPQQPPPLPQKKIVSRAASSPDGFFWTQGSPKPGTASPKLNLSHSETNVHDESHFSYSLSPGNRHHPVFSSSDPLEKAFKGSGHWLPAAGLAGNRGGCGSPGLQCKGAPSASSSQLSVSSQASTGSTQLQLHGLLSNISSKEGTYAKLGGLYTQSLARLVAKCEDLFMGGQKKELHFNENNWSLFKLTCNKPCCDSGDAIYYCATCSEDPGSTYAVKICKAPEPKTVSYCSPSVPVHFNIQQDCGHFVASVPSSMLSSPDAPKDPVPALPTHPPAQEQDCVVVITREVPHQTASDFVRDSAASHQAEPEAYERRVCFLLLQLCNGLEHLKEHGIIHRDLCLENLLLVHCTLQAGPGPAPAPAPAPAPAAAAPPCSSAAPPAGGTLSPAAGPASPEGPREKQLPRLIISNFLKAKQKPGGTPNLQQKKSQARLAPEIVSASQYRKFDEFQTGILIYELLHQPNPFEVRAQLRERDYRQEDLPPLPALSLYSPGLQQLAHLLLEADPIKRIRIGEAKRVLQCLLWGPRRELVQQPGTSEEALCGTLHNWIDMKRALMMMKFAEKAVDRRRGVELEDWLCCQYLASAEPGALLQSLKLLQLL
modifications: phosphorylated at the tandem site 14-3-3 motif (RAASSP) by LC MS/MS; left off: His tag, N-terminal, state not stated
notes: recombinant human PEAK2 residues 802–1406, insect cell expressed
B4: PEAK2-IDR1 (+ Src phosphorylation): PEAK2 residues 802–1406 phosphorylated with recombinant Src kinase (protein)
chain: B3 chain
modifications: phosphorylated with Src kinase, sites not stated; phosphorylation of the tandem site 14-3-3 motif (RAASSP) found by proteomic analysis; biotin (EZ-Link NHS-PEG4-Biotin, 1:1 molar ratio); left off: His
notes: PEAK2 residues 802–1406 phosphorylated with recombinant Src kinase

How the values were obtained:
CrkII^FL dimer = target: T1, CrkII^FL dimer (Homo sapiens, UniProt P46108); test: SPR, CrkII FL dimer binding to immobilised PEAK proteins; details: interactor as analyte over biotinylated PEAK protein (biotin CAPture); Biacore 8K+, HBS-TP with 500 mM NaCl, 20 °C; steady-state fit; mean ± SD (N = 2)
T1 construct: full length CrkII (CrkII^FL; UniProt P46108-1, residues 1–330); 8-His tag with TEV protease cleavage site (N); made in house; host or cells: E. coli C41 (DE3)
T1 sequence (P46108 whole entry, the tested form may be a part): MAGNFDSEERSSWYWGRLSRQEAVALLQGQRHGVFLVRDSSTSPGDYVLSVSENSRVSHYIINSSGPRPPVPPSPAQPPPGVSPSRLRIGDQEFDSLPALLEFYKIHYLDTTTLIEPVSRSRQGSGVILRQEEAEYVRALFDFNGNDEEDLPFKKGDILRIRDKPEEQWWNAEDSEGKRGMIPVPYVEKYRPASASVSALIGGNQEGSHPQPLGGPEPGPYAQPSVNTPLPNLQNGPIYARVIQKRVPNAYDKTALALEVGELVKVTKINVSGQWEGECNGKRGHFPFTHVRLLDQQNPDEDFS
Experimental: (§1) SPR binding studies of PEAK PRM peptides to CrkII^NSH3 were performed using a Biacore S200 Instrument (Cytiva). Purified CrkII^NSH3 was diluted to 5 µg ml^−1 in 10 mM sodium acetate pH 4.0 and amine coupled at 25 °C to a Series S CM5 sensor chip, in HBS-N running buffer (20 mM HEPES pH 7.4, 150 mM NaCl) to a final immobilization level of 1100–1400 response units (RU), followed by surface deactivation using 1 M ethanolamine. A blank activation/deactivation was used for the reference surface. Peptide binding studies were performed at 20 °C in HBS-TP running buffer (20 mM HEPES pH 7.4, 150 mM NaCl, 1 mM TCEP, 0.005% (v/v) Tween-P20). […] Peptide stocks were further diluted to in running buffer to 10 or 20 µM and prepared as a 11-point concentration series (2-fold serial dilution, […] for PEAK PRM peptides, or 20 µM–20 nM for PEAK tandem motif peptides). Samples were injected in a multi-cycle run (flow rate 30 µl min^−1, contact time of 60 s, dissociation 120 s) without regeneration. Sensorgrams were double referenced, and steady-state binding data fitted using a 1:1 binding model using Biacore S200 Evaluation Software (Cytiva, v. 1.1).
(§2) SPR binding studies of PEAK proteins to full length CrkII/Grb2 and sub-domains were performed using a Biacore 8K+ Instrument (Cytiva) and analyzed using Biacore Insight Evaluation Software (v. 3.0.12.15655). […] Binding studies and steady-state data analysis were performed as described for CrkII^NSH3 with the inclusion of an additional surface regeneration step (60 s injection of 1 M NaCl) between cycles.

Grb2^FL = target: T2, Grb2^FL (Homo sapiens, UniProt P62993); test: SPR, Grb2 FL binding to immobilised PEAK proteins; details: interactor as analyte over biotinylated PEAK protein (biotin CAPture); Biacore 8K+, HBS-TP with 500 mM NaCl, 20 °C; steady-state fit; mean ± SD (N = 2) or S.E.M. (N = 3)
T2 construct: Grb2^FL; UniProt P62993-1, residues 1–217; 8-His tag with TEV protease cleavage site (N); made in house; host or cells: E. coli C41 (DE3)
T2 sequence (P62993 whole entry, the tested form may be a part): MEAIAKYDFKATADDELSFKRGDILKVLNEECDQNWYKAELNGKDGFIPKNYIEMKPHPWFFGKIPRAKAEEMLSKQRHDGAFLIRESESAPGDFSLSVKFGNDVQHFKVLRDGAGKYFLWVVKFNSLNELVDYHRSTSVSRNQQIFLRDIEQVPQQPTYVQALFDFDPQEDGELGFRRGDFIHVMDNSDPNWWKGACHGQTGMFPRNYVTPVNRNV
Experimental: as §1
(§3) SPR binding studies of PEAK proteins to full length CrkII/Grb2 and sub-domains were performed using a Biacore 8K+ Instrument (Cytiva) and analyzed using Biacore Insight Evaluation Software (v. 3.0.12.15655). […]

CrkII^NSH3 = target: T3, CrkII^NSH3 (Homo sapiens, UniProt P46108); test: SPR, CrkII NSH3 binding to immobilised PEAK proteins; details: read-out: CrkII NSH3 SPR KD; interactor as analyte over biotinylated PEAK protein captured with biotin CAPture kit; Biacore 8K+, HBS-TP, 20 °C; steady-state fit; mean ± SD (N = 2); read-out: CrkII-SH2 SPR KD
T3 construct: CrkII^NSH3; UniProt P46108-1, residues 134–191; 8-His tag with TEV protease cleavage site (N); made in house; host or cells: E. coli C41 (DE3)
T3 sequence (P46108 134-191): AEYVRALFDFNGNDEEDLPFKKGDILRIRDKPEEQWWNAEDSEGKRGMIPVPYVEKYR
Experimental: as §1, §2

CrkII^SH2 = target: T4, CrkII^SH2 (Homo sapiens, UniProt P46108); test: SPR, CrkII SH2 binding to immobilised PEAK proteins; details: interactor as analyte over biotinylated PEAK protein (biotin CAPture); Biacore 8K+, HBS-TP with 500 mM NaCl, 20 °C; steady-state fit; mean ± S.E.M. (N = 3)
T4 construct: CrkII^SH2; UniProt P46108-1, residues 6–120; 8-His tag with TEV protease cleavage site (N); made in house; host or cells: E. coli C41 (DE3)
T4 sequence (P46108 6-120): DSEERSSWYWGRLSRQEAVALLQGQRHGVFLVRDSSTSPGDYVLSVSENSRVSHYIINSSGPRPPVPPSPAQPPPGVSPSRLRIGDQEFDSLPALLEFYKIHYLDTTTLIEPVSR
Experimental: as §1, §3

14-3-3ɣ = test: SPR, 14-3-3ɣ binding to immobilised PEAK proteins; set-up: species or system human; details: 14-3-3ɣ analyte 0.46–1000 nM, multi-cycle, over immobilised biotinylated PEAK protein; Biacore 8K+, 20 °C; KD only an estimate (bivalent analyte model); N = 3
Experimental: PEAK proteins and adapters proteins (full length or individual domains) were biotinylated using EZ-Link™ NHS-PEG4-Biotin (Thermo Fisher) at a 1:1 molar ratio (100 µM) for 1 h at room temperature, then excess biotin was removed by buffer exchange using a Zeba™ Spin Desalting Column (Thermo Fisher) into HBS-T buffer (20 mM HEPES pH 7.4, 150 mM NaCl, 1 mM TCEP).
SPR binding studies of PEAK proteins to full length CrkII/Grb2 and sub-domains were performed using a Biacore 8K+ Instrument (Cytiva) and analyzed using Biacore Insight Evaluation Software (v. 3.0.12.15655). […] Biotinylated PEAK proteins (with or without Src phosphorylation; 500 nM in HBS-TP) were immobilized using a biotin CAPture kit (Cytiva) in HBS-TP running buffer at 20 °C. Binding studies and steady-state data analysis were performed as described for CrkII^NSH3 with the inclusion of an additional surface regeneration step (60 s injection of 1 M NaCl) between cycles. For Grb2^FL, Grb2^SH2, CrkII^SH2, CrkII^FL monomer and CrkII^FL dimer, to reduce nonspecific interactions the HBS-TP running buffer was supplemented with additional NaCl to a final concentration of 500 mM.
Binding studies for 14-3-3ɣ were undertaken in the same way in multi cycle mode (8 point, 3-fold serial dilution series, 0.46–1000 nM, 60 s contact time, 300 s dissociation).

Grb2^SH2 = Grb2^SH2 (Homo sapiens, UniProt P62993); test: SPR, Grb2 SH2 binding to immobilised PEAK proteins; details: interactor as analyte over biotinylated PEAK protein (biotin CAPture); Biacore 8K+, HBS-TP with 500 mM NaCl, 20 °C; steady-state fit; mean ± S.E.M. (N = 3)
Sequence of Grb2^SH2 (P62993 60-152 limits assumed): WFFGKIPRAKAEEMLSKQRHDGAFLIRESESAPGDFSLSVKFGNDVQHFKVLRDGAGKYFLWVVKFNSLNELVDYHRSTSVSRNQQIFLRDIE
Experimental: as §1, §3

CrkII^FL monomer = target: T5, CrkII^FL monomer (Homo sapiens, UniProt P46108); test: SPR, CrkII FL monomer binding to immobilised PEAK proteins; details: interactor as analyte over biotinylated PEAK protein (biotin CAPture); Biacore 8K+, HBS-TP with 500 mM NaCl, 20 °C; steady-state fit; mean ± SD (N = 2)
T5 construct: full length CrkII (CrkII^FL; UniProt P46108-1, residues 1–330); 8-His tag with TEV protease cleavage site (N); made in house; host or cells: E. coli C41 (DE3)
T5 sequence (P46108 whole entry, the tested form may be a part): as the sequence (P46108 whole entry, the tested form may be a part) above
Experimental: as §1, §2

Row | Molecule | Kd (CrkII^FL dimer) [µM] | Kd (Grb2^FL) [µM] | Kd (CrkII^NSH3) [µM] | SPR KD, CrkII-SH2 (CrkII^SH2) | SPR KD, 14-3-3ɣ (14-3-3ɣ) | SPR KD, Grb2 SH2 (Grb2^SH2) | Kd (CrkII^FL monomer) [µM]
1 | B1 | 2.03 | > 50 | 3.7 | No binding | No binding | No binding | 9.2
2 | B2 | 1.49 |  | 4.11 |  | No binding |  | 1.5
3 | B3 | 4.22 |  | 4.79 | No binding | No binding |  | 13.7
4 | B4 | 1.38 |  | 5.2 |  | No binding |  | 2.12
